Reference: publication PMC11665552, “Talin1 dysfunction is genetically linked to systemic capillary leak syndrome” (JCI Insight, 2024)

Target: T1, WT talin1 R12-R13-DD (murine, UniProt P26039 2138-2541)
T1 construct: talin1, murine, rod domains R12 and R13 and the dimerization domain (DD), residues 2138-2541; also called WT-R12-R13-DD; R12-R13-DD WT
Assay: SEC; 100 uM talin and 100 uM Vd1 (1:1 ratio), Superdex 200 Increase 10/300 GL, room temperature (25°C)
Conditions: both partners purified

T1 sequence (P26039 2138-2541): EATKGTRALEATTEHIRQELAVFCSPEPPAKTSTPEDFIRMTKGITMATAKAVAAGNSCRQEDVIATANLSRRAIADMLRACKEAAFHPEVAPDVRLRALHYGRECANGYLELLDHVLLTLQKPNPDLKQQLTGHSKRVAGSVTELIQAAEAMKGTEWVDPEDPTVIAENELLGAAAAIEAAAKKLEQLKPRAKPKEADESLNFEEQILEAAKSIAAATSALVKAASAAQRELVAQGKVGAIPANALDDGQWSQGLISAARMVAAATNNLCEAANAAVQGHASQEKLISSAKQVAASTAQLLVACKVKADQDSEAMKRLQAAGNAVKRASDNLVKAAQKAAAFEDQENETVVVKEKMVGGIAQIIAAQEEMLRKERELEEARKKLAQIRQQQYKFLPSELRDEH

B1: talin-binding domain 1 of vinculin (Vd1) (domain or fragment, chicken, UniProt P12003 1-258, looked up)
chain: MPVFHTRTIESILEPVAQQISHLVIMHEEGEVDGKAIPDLTAPVSAVQAAVSNLVRVGKETVQTTEDQILKRDMPPAFIKVENACTKLVRAAQMLQADPYSVPARDYLIDGSRGILSGTSDLLLTFDEAEVRKIIRVCKGILEYLTVAEVVETMEDLVTYTKNLGPGMTKMAKMIDERQQELTHQEHRVMLVNSMNTVKELLPVLISAMKIFVTTKNTKSQGIEEALKNRNFTVEKMSAEINEIIRVLQLTSWDEDAW
notes: vinculin, chicken, domain 1 (Vd1), residues 1-258; expressed from a pET-15b plasmid; also called vinculin Vd1 domain
  binding result: binds
